The values that follow come from US20130288983A1 (Amgen, published 2013).

T1: Activin A (Homo sapiens (Human), UniProt P08476 311-426)
T1 sequence: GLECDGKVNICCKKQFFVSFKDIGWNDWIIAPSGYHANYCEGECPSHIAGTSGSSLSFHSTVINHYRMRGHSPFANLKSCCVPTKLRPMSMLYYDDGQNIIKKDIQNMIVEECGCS

B1: ActRIIB-IgG1 Fc E28F, linker GGGGS (Fc fusion)
chain: SGRGEAETRFCIYYNANWELERTNQSGLERCEGEQDKRLHCYASWRNSSGTIELVKKGCWLDDFNCYDRQECVATEENPQVYFCCCEGNFCNERFTHLPEAGGPEVTYEPPPTAPTGGGGSAPELLGGPSVFLFPPKPKDILMISRTPEVTCVVVDVSHEDPEVKFNWYVGGVEVHNAKTKPREEQYNSTYRVVSVLTVLHQDWLNGKEYKCKVSNKALPAPIEKTISKAKGQPREPQVYTLPPSRDELTKNQVSLTCLVKGFYPSDIAVEWESNGQPENNYKTTPPVLDSDGSFFLYSKLTVDKSRWQQGNVFSCSVMHEALHNHYTQKSLSLSPGK
notes: Tested from conditioned media
B2: ActRIIB-IgG1 Fc R40G, linker GGGGS (Fc fusion)
chain: SGRGEAETRECIYYNANWELEGTNQSGLERCEGEQDKRLHCYASWRNSSGTIELVKKGCWLDDFNCYDRQECVATEENPQVYFCCCEGNFCNERFTHLPEAGGPEVTYEPPPTAPTGGGGSAPELLGGPSVFLFPPKPKDILMISRTPEVTCVVVDVSHEDPEVKFNWYVGGVEVHNAKTKPREEQYNSTYRVVSVLTVLHQDWLNGKEYKCKVSNKALPAPIEKTISKAKGQPREPQVYTLPPSRDELTKNQVSLTCLVKGFYPSDIAVEWESNGQPENNYKTTPPVLDSDGSFFLYSKLTVDKSRWQQGNVFSCSVMHEALHNHYTQKSLSLSPGK
notes: Tested from conditioned media
B3: ActRIIB-IgG1 Fc E28M, linker GGGGS (Fc fusion)
chain: SGRGEAETRMCIYYNANWELERTNQSGLERCEGEQDKRLHCYASWRNSSGTIELVKKGCWLDDFNCYDRQECVATEENPQVYFCCCEGNFCNERFTHLPEAGGPEVTYEPPPTAPTGGGGSAPELLGGPSVFLFPPKPKDILMISRTPEVTCVVVDVSHEDPEVKFNWYVGGVEVHNAKTKPREEQYNSTYRVVSVLTVLHQDWLNGKEYKCKVSNKALPAPIEKTISKAKGQPREPQVYTLPPSRDELTKNQVSLTCLVKGFYPSDIAVEWESNGQPENNYKTTPPVLDSDGSFFLYSKLTVDKSRWQQGNVFSCSVMHEALHNHYTQKSLSLSPGK
notes: Tested from conditioned media
B4: ActRIIB-IgG1 Fc E28Q, linker GGGGS (Fc fusion)
chain: SGRGEAETRQCIYYNANWELERTNQSGLERCEGEQDKRLHCYASWRNSSGTIELVKKGCWLDDFNCYDRQECVATEENPQVYFCCCEGNFCNERFTHLPEAGGPEVTYEPPPTAPTGGGGSAPELLGGPSVFLFPPKPKDILMISRTPEVTCVVVDVSHEDPEVKFNWYVGGVEVHNAKTKPREEQYNSTYRVVSVLTVLHQDWLNGKEYKCKVSNKALPAPIEKTISKAKGQPREPQVYTLPPSRDELTKNQVSLTCLVKGFYPSDIAVEWESNGQPENNYKTTPPVLDSDGSFFLYSKLTVDKSRWQQGNVFSCSVMHEALHNHYTQKSLSLSPGK
notes: Tested from conditioned media
B5: ActRIIB-IgG1 Fc E28K, linker GGGGS (Fc fusion)
chain: SGRGEAETRKCIYYNANWELERTNQSGLERCEGEQDKRLHCYASWRNSSGTIELVKKGCWLDDFNCYDRQECVATEENPQVYFCCCEGNFCNERFTHLPEAGGPEVTYEPPPTAPTGGGGSAPELLGGPSVFLFPPKPKDILMISRTPEVTCVVVDVSHEDPEVKFNWYVGGVEVHNAKTKPREEQYNSTYRVVSVLTVLHQDWLNGKEYKCKVSNKALPAPIEKTISKAKGQPREPQVYTLPPSRDELTKNQVSLTCLVKGFYPSDIAVEWESNGQPENNYKTTPPVLDSDGSFFLYSKLTVDKSRWQQGNVFSCSVMHEALHNHYTQKSLSLSPGK
notes: Tested from conditioned media
B6: ActRIIB-IgG1 Fc E28Y, linker GGGGS (Fc fusion)
chain: SGRGEAETRYCIYYNANWELERTNQSGLERCEGEQDKRLHCYASWRNSSGTIELVKKGCWLDDFNCYDRQECVATEENPQVYFCCCEGNFCNERFTHLPEAGGPEVTYEPPPTAPTGGGGSAPELLGGPSVFLFPPKPKDILMISRTPEVTCVVVDVSHEDPEVKFNWYVGGVEVHNAKTKPREEQYNSTYRVVSVLTVLHQDWLNGKEYKCKVSNKALPAPIEKTISKAKGQPREPQVYTLPPSRDELTKNQVSLTCLVKGFYPSDIAVEWESNGQPENNYKTTPPVLDSDGSFFLYSKLTVDKSRWQQGNVFSCSVMHEALHNHYTQKSLSLSPGK
notes: Tested from conditioned media
B7: ActRIIB-IgG1 Fc R40K, linker GGGGS (Fc fusion)
chain: SGRGEAETRECIYYNANWELEKTNQSGLERCEGEQDKRLHCYASWRNSSGTIELVKKGCWLDDFNCYDRQECVATEENPQVYFCCCEGNFCNERFTHLPEAGGPEVTYEPPPTAPTGGGGSAPELLGGPSVFLFPPKPKDILMISRTPEVTCVVVDVSHEDPEVKFNWYVGGVEVHNAKTKPREEQYNSTYRVVSVLTVLHQDWLNGKEYKCKVSNKALPAPIEKTISKAKGQPREPQVYTLPPSRDELTKNQVSLTCLVKGFYPSDIAVEWESNGQPENNYKTTPPVLDSDGSFFLYSKLTVDKSRWQQGNVFSCSVMHEALHNHYTQKSLSLSPGK
notes: Tested from conditioned media
B8: ActRIIB-IgG1 Fc R40M, linker GGGGS (Fc fusion)
chain: SGRGEAETRECIYYNANWELEMTNQSGLERCEGEQDKRLHCYASWRNSSGTIELVKKGCWLDDFNCYDRQECVATEENPQVYFCCCEGNFCNERFTHLPEAGGPEVTYEPPPTAPTGGGGSAPELLGGPSVFLFPPKPKDILMISRTPEVTCVVVDVSHEDPEVKFNWYVGGVEVHNAKTKPREEQYNSTYRVVSVLTVLHQDWLNGKEYKCKVSNKALPAPIEKTISKAKGQPREPQVYTLPPSRDELTKNQVSLTCLVKGFYPSDIAVEWESNGQPENNYKTTPPVLDSDGSFFLYSKLTVDKSRWQQGNVFSCSVMHEALHNHYTQKSLSLSPGK
notes: Tested from conditioned media
B9: ActRIIB-IgG1 Fc E28I, linker GGGGS (Fc fusion)
chain: SGRGEAETRICIYYNANWELERTNQSGLERCEGEQDKRLHCYASWRNSSGTIELVKKGCWLDDFNCYDRQECVATEENPQVYFCCCEGNFCNERFTHLPEAGGPEVTYEPPPTAPTGGGGSAPELLGGPSVFLFPPKPKDILMISRTPEVTCVVVDVSHEDPEVKFNWYVGGVEVHNAKTKPREEQYNSTYRVVSVLTVLHQDWLNGKEYKCKVSNKALPAPIEKTISKAKGQPREPQVYTLPPSRDELTKNQVSLTCLVKGFYPSDIAVEWESNGQPENNYKTTPPVLDSDGSFFLYSKLTVDKSRWQQGNVFSCSVMHEALHNHYTQKSLSLSPGK
notes: Tested from conditioned media
B10: ActRIIB-IgG1 Fc E28V, linker GGGGS (Fc fusion)
chain: SGRGEAETRVCIYYNANWELERTNQSGLERCEGEQDKRLHCYASWRNSSGTIELVKKGCWLDDFNCYDRQECVATEENPQVYFCCCEGNFCNERFTHLPEAGGPEVTYEPPPTAPTGGGGSAPELLGGPSVFLFPPKPKDILMISRTPEVTCVVVDVSHEDPEVKFNWYVGGVEVHNAKTKPREEQYNSTYRVVSVLTVLHQDWLNGKEYKCKVSNKALPAPIEKTISKAKGQPREPQVYTLPPSRDELTKNQVSLTCLVKGFYPSDIAVEWESNGQPENNYKTTPPVLDSDGSFFLYSKLTVDKSRWQQGNVFSCSVMHEALHNHYTQKSLSLSPGK
notes: Tested from conditioned media
B11: ActRIIB-IgG1 Fc E28W, linker GGGGS (Fc fusion)
chain: SGRGEAETRWCIYYNANWELERTNQSGLERCEGEQDKRLHCYASWRNSSGTIELVKKGCWLDDFNCYDRQECVATEENPQVYFCCCEGNFCNERFTHLPEAGGPEVTYEPPPTAPTGGGGSAPELLGGPSVFLFPPKPKDILMISRTPEVTCVVVDVSHEDPEVKFNWYVGGVEVHNAKTKPREEQYNSTYRVVSVLTVLHQDWLNGKEYKCKVSNKALPAPIEKTISKAKGQPREPQVYTLPPSRDELTKNQVSLTCLVKGFYPSDIAVEWESNGQPENNYKTTPPVLDSDGSFFLYSKLTVDKSRWQQGNVFSCSVMHEALHNHYTQKSLSLSPGK
notes: Tested from conditioned media
B12: ActRIIB-IgG1 Fc E28H, linker GGGGS (Fc fusion)
chain: SGRGEAETRHCIYYNANWELERTNQSGLERCEGEQDKRLHCYASWRNSSGTIELVKKGCWLDDFNCYDRQECVATEENPQVYFCCCEGNFCNERFTHLPEAGGPEVTYEPPPTAPTGGGGSAPELLGGPSVFLFPPKPKDILMISRTPEVTCVVVDVSHEDPEVKFNWYVGGVEVHNAKTKPREEQYNSTYRVVSVLTVLHQDWLNGKEYKCKVSNKALPAPIEKTISKAKGQPREPQVYTLPPSRDELTKNQVSLTCLVKGFYPSDIAVEWESNGQPENNYKTTPPVLDSDGSFFLYSKLTVDKSRWQQGNVFSCSVMHEALHNHYTQKSLSLSPGK
notes: Tested from conditioned media
B13: ActRIIB-IgG1 Fc E28L, linker GGGGS (Fc fusion)
chain: SGRGEAETRLCIYYNANWELERTNQSGLERCEGEQDKRLHCYASWRNSSGTIELVKKGCWLDDFNCYDRQECVATEENPQVYFCCCEGNFCNERFTHLPEAGGPEVTYEPPPTAPTGGGGSAPELLGGPSVFLFPPKPKDILMISRTPEVTCVVVDVSHEDPEVKFNWYVGGVEVHNAKTKPREEQYNSTYRVVSVLTVLHQDWLNGKEYKCKVSNKALPAPIEKTISKAKGQPREPQVYTLPPSRDELTKNQVSLTCLVKGFYPSDIAVEWESNGQPENNYKTTPPVLDSDGSFFLYSKLTVDKSRWQQGNVFSCSVMHEALHNHYTQKSLSLSPGK
notes: Tested from conditioned media
B14: ActRIIB-IgG1 Fc R40H, linker GGGGS (Fc fusion)
chain: SGRGEAETRECIYYNANWELEHTNQSGLERCEGEQDKRLHCYASWRNSSGTIELVKKGCWLDDFNCYDRQECVATEENPQVYFCCCEGNFCNERFTHLPEAGGPEVTYEPPPTAPTGGGGSAPELLGGPSVFLFPPKPKDILMISRTPEVTCVVVDVSHEDPEVKFNWYVGGVEVHNAKTKPREEQYNSTYRVVSVLTVLHQDWLNGKEYKCKVSNKALPAPIEKTISKAKGQPREPQVYTLPPSRDELTKNQVSLTCLVKGFYPSDIAVEWESNGQPENNYKTTPPVLDSDGSFFLYSKLTVDKSRWQQGNVFSCSVMHEALHNHYTQKSLSLSPGK
notes: Tested from conditioned media

Where only a bound is given, the exact number is not on record here.

The target in this assay is T1, Activin A. Put plainly: Biacore SPR grade, COS transient conditioned media, 20 nM activin A. How it is done: Qualitative BIAcore® Assay. E28 and R40 were substituted respectively with other natural amino acids in fusions with IgG1 Fc as described above. Each vActRIIB-IgG1Fc sample from conditioned media was captured on goat anti-human IgG1 Fc antibody (Jackson Immuno Research, cat#109-005-098, lot 63550) coated CMS surface. 20 nM of Activin A was injected over captured sample surfaces using BIACore2000 (BIACore Life Sciences, Piscataway, N.J.). The resulting sensorgrams were normalized to the captured RL (500 RU) of vActRIIB-IgG1Fc variants. The normalized binding response (RU) for some variants are shown in Table 2, and is further described below. Relative binding affinity for activin was also determined by Biacore measurements using conditioned media obtained from mammalian cell expression. Activin A (20 nM) was used to capture soluble receptor polypeptide in the conditioned media and measured SPR signals were normalized. Normalized SPR of +++++: >60, ++++:40-60, +++:20-40, ++:10-20, +: 5-10, −: <5.
Regarding B1, the “normalized SPR signal” value lay in the range of 20 to 40 ru.
On to B2, for which the “normalized SPR signal” value was 20 to 40 ru.
Consider B3, for which the “normalized SPR signal” value lay within 10 to 20 ru.
Consider B4, for which the “normalized SPR signal” value lay in the range of 5 to 10 ru.
The value for B5 was 5 to 10 ru; that for B6 was greater than 60 ru; that for B7 was 10 to 20 ru.
With B8, the “normalized SPR signal” value was in the range of 5 to 10 ru.
With B9 the figure was 10 to 20 ru; with B10, 5 to 10 ru; with B11, greater than 60 ru.
Regarding B12, the “normalized SPR signal” value lay in the range of 5 to 10 ru.
The value for B13 was 5 to 10 ru.
For the molecule B14, the “normalized SPR signal” value was in the range of 10 to 20 ru.
